Measured values published in patent US20250263490A1 (VIB VZW, published 2025).

How the values were obtained:
[1] = molecular target: T1, recombinant human domain 1-3His6 of the cation-independent mannose-6-phosphate receptor (human, UniProt P11717 41-467); assay: BLI exp 1, dissoc pH 6
T1 construct: Biotinylated (NHS-PEG4-biotin) for BLI; Glycosylated; also called hDom1-3His6; hCI-M6PRD1-D3
Protocol: (§1) For each of the 11 anti-CI-M6PR VHHs, a biolayer interferometry (BLI) experiment was performed in which the hDom₁₋₃His₆ was biotinylated and coupled to streptavidin biosensor tips. Afterwards, the tips were incubated with serially diluted VHHs during the association phase and dissociation was performed at pH 7.4. Similarly, dissociation was performed at pH 7.0, pH 6.0 and pH 5.0 as well after regeneration of the biosensor tips. […] The anti-CI-M6PR antibody (clone 2G11) and GBP were used as positive and negative controls, respectively.
(§2) Analysis of the binding kinetics was performed using an Octet Red96 (FortéBio) device with Streptavidin SA Biosensor tips (VWR 733-2145). Therefore, 1 mL of human domain₁₋₃His₆ (0.5 mg/mL in 50 mM MES, 150 mM NaCl, pH 6.5) was incubated at room temperature for 30 minutes with EZ-Link™ NHS-PEG4-Biotin (1 mg) (Thermo Fischer A39259) and NaHCO₃ (100 mM). Biotinylated human domain₁₋₃His₆ was purified using a Zeba spin desalting Column™ (7K MWCO, 2 mL, Thermo Fischer 89890) and 1 μg/mL was used for immobilization on the Streptavidin SA Biosensor tips. The loaded tips were dipped into a particular anti-CI-M6PR VHH solution, serially diluted in kinetics buffer (0.2M NaH₂PO₄, 0.1M Na⁺ citrate, 0.01% BSA, 0.002% Tween20, pH 7.4). This was followed by dissociation of the particular anti-CI-M6PR VHH in kinetics buffer of pH 7.4, followed by regeneration in Glycine (10 mM, pH 3) and neutralisation. Same cycle was repeated but the dissociation was performed at pH 7.0, 6.0, 5.0, 4.5 and 4.0. A reference well and reference sensors were subtracted from ligand sensors afterwards and Savitsky-Golay filtering was applied on the data. Fitting of the data was performed using a 1:1 model, grouped per pH of dissociation.

[2] = molecular target: T1, recombinant human domain 1-3His6 of the …; assay: BLI at pH 7.4, 1st of 2 repeats
Protocol: as §1, §2

[3] = molecular target: T1, recombinant human domain 1-3His6 of the …; assay: BLI exp 2, dissoc pH 5
Protocol: as §1
Analysis of the binding kinetics was performed using an Octet Red96 (FortéBio) device with Streptavidin SA Biosensor tips (VWR, 733-2145). To this end, 1 mL of hCI-M6PR_D1-D3 (0.5 mg/mL in 50 mM MES, 150 mM NaCl, pH 6.5) was incubated at room temperature for 30 minutes with a two-fold molar excesses of EZ-Link™ NHS-PEG₄-Biotin (Thermo Fischer, A39259) and NaHCO₃ (100 mM, pH 8.3). Biotinylated hCIMPR_D1-D3 was purified using a Zeba spin desalting column (Thermo Fischer, 89890) and protein concentration was calculated by measuring the absorbance at 280 nm (extinction coefficient 50320 M¹ cm⁻¹). Two-fold biotin-labelled antigen was loaded on the tips (2.5 μg/mL) and subsequently dipped into a particular anti-CI-M6PR VHH-containing solution (ranging from 0-100 nM). Serial VHH dilutions were made in kinetics buffer (0.2 M Na₂HPO₄, 0.1 M Na⁺ citrate, 0.01% BSA, 0.002% Tween20, pH 7.4). After association (100 sec), dissociation was conducted (500 sec) for each anti-CI-M6PR VHH in the kinetics buffer, followed by biosensor regeneration in glycine (10 mM, pH 3) and neutralisation. The same cycle was repeated with dissociation performed in kinetics buffer of pH 7.0, 6.5, 6.0, 5.5, and 5.0.
A reference well and reference sensors were subtracted from ligand sensors afterwards and Savitsky-Golay filtering was applied on the data. Fitting of the data was performed using a 1:1 model, grouped per dissociation pH.

[4] = molecular target: T2, recombinant mouse domain 1-3His6 of CI-M6PR (mouse, UniProt Q07113 36-418); assay: ELISA: coated mouse CI-M6PR Domain 1-3His6, serially diluted VHH, anti-VHH-HRP, TMB, Abs 450 nm; sigmoidal regression [table at the right]
T2 construct: Genbank NM_010515.2); Range includes the signal peptide; also called mDom1-3His6; mCI-M6PRD1-D3
Protocol: FIGS. 5A-5B. Affinity of anti-CI-M6PR VHHs for recombinant mouse CI-M6PR Domain 1-3His₆ determined by ELISA. (FIG. 5A) Measurement for each of the 11 anti-CI-M6PR VHHs in serial dilution binding to the coated mouse antigen. Detection was performed using an anti-VHH antibody coupled to HRP, and measured as the absorbance of the TMB substrate at 450 nm, correlating to the amount of bound VHH as plotted at the Y-axis. The Log₁₀ concentrations of the serially diluted VHHs were plotted at the X-axis.
To evaluate the cross-reactivity of the anti-CI-M6PR nanobodies between the human and mouse CI-M6PR domain 1-3His₆ antigen, ELISA was performed with the eleven serially diluted anti-CI-M6PR nanobodies. […] By performing sigmoidal regression on the derived absorbance curves, half-maximal effective concentration (EC₅₀) values of each VHH were acquired, representing the required concentration to occupy 50% of the coated antigen. As a negative control, GBP was included in the assay.

[5] = molecular target: T1, recombinant human domain 1-3His6 of the …; assay: BLI exp 2, dissoc pH 7
[6] = molecular target: T1, recombinant human domain 1-3His6 of the …; assay: BLI exp 1, dissoc pH 5
Protocol: as §1, §2

[7] = molecular target: T1, recombinant human domain 1-3His6 of the …; assay: BLI exp 2, dissoc pH 7.4
Protocol: as §1, §2

T2 sequence (Q07113 other isoform, or with tags, fused parts or gaps): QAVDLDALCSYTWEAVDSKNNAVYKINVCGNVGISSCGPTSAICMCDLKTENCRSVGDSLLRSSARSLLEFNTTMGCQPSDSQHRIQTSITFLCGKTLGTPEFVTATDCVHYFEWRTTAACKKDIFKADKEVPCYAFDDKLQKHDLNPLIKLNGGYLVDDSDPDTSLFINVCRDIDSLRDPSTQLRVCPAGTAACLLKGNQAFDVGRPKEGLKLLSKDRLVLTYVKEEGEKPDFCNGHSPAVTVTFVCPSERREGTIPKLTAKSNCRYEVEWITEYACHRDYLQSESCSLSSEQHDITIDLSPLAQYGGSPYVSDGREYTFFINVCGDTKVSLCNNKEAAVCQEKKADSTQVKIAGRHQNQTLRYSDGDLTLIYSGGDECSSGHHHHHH

Binder | koff [1] [s⁻¹] | kon [1] [M⁻¹ s⁻¹] | Kd [2] [nM] | koff [2] [s⁻¹] | kon [2] [M⁻¹ s⁻¹] | koff [3] [s⁻¹] | kon [3] [M⁻¹ s⁻¹] | EC50 [4] [nM] | koff [5] [s⁻¹] | kon [5] [M⁻¹ s⁻¹] | koff [6] [s⁻¹] | kon [6] [M⁻¹ s⁻¹] | Kd [7] [nM] | koff [7] [s⁻¹] | kon [7] [M⁻¹ s⁻¹] | Kd [1] [nM] | Kd [6] [nM]
anti-CI-M6PR VHH4 (VHH, His6-tagged; made in Pichia pastoris) VHH: QVQLQESGGGLVQAGGSLRLSCAASGRTFSNYVMGWFRQAPGKEREFVGSISQGGKMTYYPDSVKGRFTISRDNAKNTMYLQMDGLKPEDTAVYYCAVSRGYPMVRVSEVDYWGQGTQVTVSS | 0.00101 | 316000 |  |  |  | 0.00729 | 729000 | 873 | 0.00101 | 316000 | 0.00729 | 729000 | 2.34 | 0.00133 | 571000 | 3.18 | 10
anti-CI-M6PR VHH5 (VHH, His6-tagged; made in Pichia pastoris, later also in E. coli WK6) VHH: QVQLQESGGGLVQAGGSLKLSCAAAGRTFSRLAMGWFRQAPGKEREFVAAISENGDSIHYSDSVKGRFAVSRDNAKNTVYLQMNSLKPEDTAIYYCAADRAAYYCSGSGCYPSRAPAAASYDYWGQGTQVTVSS | 1.52e-05 | 1.38e+06 | 0.0903 | 0.000124 | 1.37e+06 | 0.033 | 2.33e+08 | 562 | 0.00019 | 1.5e+06 | 0.00861 | 1.5e+06 |  | 0.00018 | 1.8e+06 | 0.0111 | 5.76
anti-CI-M6PR VHH1 (VHH, His6-tagged; made in Pichia pastoris, later also in E. coli WK6) VHH: QVQLQESGGGLVQPGGSLRLSCVASGFTFDRYWMNWLRQIPGKEIEWVSTINTGGTGTYYDDSVKGRFSISRDDAKNTLYLTMNSLKTEDTAVYYCARGATYYRGNSAIRGQGTQVTVSS | ~0.0165 | 1.3e+06 | 7.44 | ~0.00606 | 814000 | 0.072 |  | 355 | 0.0021 | 1.5e+06 | ~0.0988 | 4e+06 | ~11.2 | 0.0099 | 1e+06 | 12.7 | 24.7
anti-CI-M6PR VHH7 (VHH, His6-tagged (Pichia pastoris)) VHH: QVQLQESGGGLVQPGGSLRLSCAASGIIFSDNRMDWYRQAPGKQREWVATLASYGWKTYADSVKGRFTISRDNTKNTVYLRMNSLKPEDTAVYYCKASSPVLNDIWGQGTQVTVSS | 0.0321 | 3.67e+06 | 10.8 | 0.00999 | 924000 | 0.055 | 55000 |  | 0.013 | 130000 | 0.0542 | 4.62e+06 | 9.08 | 0.0118 | 1.3e+06 | 8.75 | 11.7
anti-CI-M6PR VHH3 (VHH, His6-tagged; made in Pichia pastoris) VHH: QVQLQESGGGLVQPGGSLRLSCAAFGLNFKNFDMIWFRQAPGEERDIVAAISSSSSTIWYEDSVKGRFTISRDNAKNTVYLQMNSLKPEDTAVYYCAAALTSWRRPDYWGQGTQVTVSS | 0.000851 | 3.16e+06 | ≤ 0.000117 | ≤ 1e-07 | 853000 | 0.000369 | 55600 | 670 | 0.000844 | 53000 | 0.00149 | 1.1e+06 | 7.09 | 0.000345 | 48600 | 0.27 | 1.36
anti-CI-M6PR VHH6 (VHH, His6-tagged; made in E. coli) VHH: QVQLQESGGGLVQAGGSLRLSCAVSGSISSIGGMGWFRQAPGKQREFVAVILNNSGMTSYADSVKGRFTISRGNSKNTMYLQMNSLKPEDTAVYYCNYSGYWGQGTQVTVSS | 0.00242 | 1.55e+06 | 3.35 | 0.00352 | 1.05e+06 | 0.0156 | 330000 | 9750 | 0.00242 | 392000 | 0.0156 | 1.84e+06 | 4.74 | 0.00352 | 743000 | 1.56 | 8.5

Now from value to binder:

koff [1] [s⁻¹] | kon [1] [M⁻¹ s⁻¹] | Kd [2] [nM] | koff [2] [s⁻¹] | kon [2] [M⁻¹ s⁻¹] | koff [3] [s⁻¹] | kon [3] [M⁻¹ s⁻¹] | EC50 [4] [nM] | koff [5] [s⁻¹] | kon [5] [M⁻¹ s⁻¹] | koff [6] [s⁻¹] | kon [6] [M⁻¹ s⁻¹] | Kd [7] [nM] | koff [7] [s⁻¹] | kon [7] [M⁻¹ s⁻¹] | Kd [1] [nM] | Kd [6] [nM] | Binder
0.00205 | 39100 | 46.3 | 0.00177 | 38100 | 0.0106 | 91100 | 1620 | 0.00148 | 99300 | 0.0106 | 91100 | 46.5 | 0.00177 | 38100 |  |  | anti-CI-M6PR VHH10 (VHH, His6-tagged; made in Pichia pastoris) VHH: QVQLQESGGGSVQAGGSLRLSCAPAGRTFSRIRMGWFRQAPGKEREFVAAISSGGLSYYADSMKGRFTISRDNAKNTVLLQMNSLEPDDTAVYYCAAVLNDYIDDYVARNPTLYDYWGQGTQVTVSS
0.00122 | 1.81e+06 | 0.282 | 0.000444 | 1.57e+06 | 0.0496 | 590000 | 2750 | 0.00051 | 379000 | 0.0496 | 590000 | 0.282 | 0.000444 | 1.57e+06 | 0.674 | 84.1 | anti-CI-M6PR VHH9 (VHH, His6-tagged; made in Pichia pastoris) VHH: QVQLQESGGGLVQAGGSLRLSCAASGTILSIKTMGWYRQAPGKEREWVATITSSSIPMYADSVKGRFTISRDDAKNTVYLQMNSLKPEDTGVYYCNAPWTDYWGQGTQVTVSS
0.00293 | 231000 | 1.69 | 0.000787 | 465000 | 0.084 | 2.4e+06 | 595 | 0.000976 | 404000 | 0.0328 | 302000 |  | 0.00065 |  | 12.7 | 109 | anti-CI-M6PR VHH8 (VHH, His6-tagged (Pichia pastoris)) VHH: QVQLQESGGGLVQAGGSLRLSCEASGRTFNTYNWGWFRQAPGKEREFVAAIRWSSSKTSYADSVKGRFTISRDNAKNTIYLQMNSLKPEDTAVYYCAASIVDFTTNPSHFGSWGQGTQVTVSS
